Ten molecules from patent US9481899B2, “Methods and compositions for producing hydrocarbons” (priority 2008, dated 2016) can be followed below.

The target in one data set is T1, PCC7942_orf1594 protein (Synechococcus elongatus, UniProt Q54765).
T1 construct: made in house; host or cells: E. coli BL21 (DE3)
T1 sequence (Q54765 1-341): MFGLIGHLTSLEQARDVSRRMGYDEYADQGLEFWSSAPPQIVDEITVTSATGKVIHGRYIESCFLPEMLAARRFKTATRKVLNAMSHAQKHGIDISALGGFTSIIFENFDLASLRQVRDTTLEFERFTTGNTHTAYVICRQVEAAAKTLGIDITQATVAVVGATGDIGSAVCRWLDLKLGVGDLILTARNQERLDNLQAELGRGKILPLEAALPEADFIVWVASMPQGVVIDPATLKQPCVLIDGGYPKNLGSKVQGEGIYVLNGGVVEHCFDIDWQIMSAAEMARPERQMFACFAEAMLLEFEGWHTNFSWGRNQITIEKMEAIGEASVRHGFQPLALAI
Briefly: Acyl-ACP or acyl-CoA reductase enzyme assay. Conditions: for reduction to fatty aldehyde: 10 μM enzyme, MgCl2, NADPH, 1 h at 37° C. It counts as biochemical, Synechococcus elongatus PCC7942. The procedure: The genomic DNA encoding S. elongatus […] orf1594 (SEQ ID NO:65) was cloned into the NcoI and XhoI sites of vector pET-28b under the control of the T7 promoter. The resulting PCC7942_orf1594 protein contained a C-terminal His-tag. An E. coli BL21 strain (DE3) (Invitrogen) was transformed with the plasmid and PCC7942_orf1594 protein was expressed and purified as described in Example 22. The protein solution was stored in the following buffer: 50 mM sodium phosphate, pH 7.5, 100 mM NaCl, 1 mM THP, 10% glycerol. Protein concentration was determined using the Bradford assay (Biorad). 2 mg/mL of PCC7942_orf1594 protein was obtained.
To test PCC7942_orf1594 protein for acyl-ACP or acyl-CoA reductase activity, the following enzyme assays were set-up. 100 μL reactions were set-up in 50 mM Tris-HCl buffer at pH 7.5 with the following components at their respective final concentrations: 10 μM of purified PCC7942_orf1594 protein, 0.01-1 mM acyl-CoA or acyl-ACP, 2 mM MgCl2, 0.2-2 mM NADPH. The reactions were incubated for 1 h at 37° C. and where stopped by adding 100 μL ethyl acetate (containing 5 mg/l 1-octadecene as internal standard). Samples were vortexed for 15 min and centrifuged at max speed for 3 min for phase separation. 80 μL of the top layer were transferred into GC glass vials and analyzed by GC/MS as described in Example 26. The amount of aldehyde formed was calculated based on the internal standard.
Next, the stereospecific hydride transfer from NADPH to a fatty aldehyde catalyzed by PCC7942_orf1594 was examined. Deutero-NADPH was prepared according to the following protocol. 5 mg of NADP and 3.6 mg of D-glucose-1-d was added to 2.5 mL of 50 mM sodium phosphate buffer (pH 7.0). Enzymatic production of labeled NADPH was initiated by the addition of 5 units of glucose dehydrogenase from either Bacillus megaterium (USB Corporation) for the production of R-(4-^2H)NADPH or Thermoplasma acidophilum (Sigma) for the production of S-(4-^2H)NADPH. The reaction was incubated for 15 min at 37° C., centrifuge-filtered using a 10 KDa MWCO Amicon Ultra centrifuge filter (Millipore), flash frozen on dry ice, and stored at −80° C.
The in vitro assay reaction contained 50 mM Tris-HCl (pH 7.5), 10 μM of purified PCC7942_orf1594 protein, 1 mM octadecanoyl-CoA, 2 mM MgCl2, and 50 μL deutero-NADPH (prepared as described above) in a total volume of 100 μL. After a 1 h incubation, the product of the enzymatic reaction was extracted and analyzed as described above. The resulting fatty aldehyde detected by GC/MS was octadecanal (see FIG. 34). Because hydride transfer from NADPH is stereospecific, both R-(4-^2H)NADPH and S-(4-^2H)NADPH were synthesized.

A further data set has as its system E. coli MG1655. As to the kind of experiment: Coexpression of decarbonylase and aldehyde-generating enzyme in E. coli, GC-MS of hydrocarbons. It counts as cell-based. The note with it: for Production of Alkanes and Alkenes: alkane/alkene biosynthetic polypeptide coexpressed in E. coli with the aldehyde biosynthetic polypeptide of the same table row; for fatty aldehyde decarbonylase activity in E. coli: cotransformed with S. elongatus PCC7942_1594 into E. coli MG1655, M9 minimal media, 37° C. The text has this: Seven cyanobacteria, whose complete genome sequences are publicly available, were selected for verification and/or detection of alkane biosynthesis: Synechococcus elongatus PCC7942, Synechococcus elongatus PCC6301, Anabaena variabilis ATCC29413, Synechocystis sp. PCC6803, Nostoc punctiforme PCC73102, Gloeobacter violaceus ATCC 29082, and Prochlorococcus marinus CCMP1986. Only the first three cyanobacterial strains from this list had previously been reported to contain alkanes (Han et al., J. Am. Chem. Soc. 91:5156-5159 (1969); Fehler et al., Biochem. 9:418-422 (1970)). The strains were grown photoautotrophically in shake flasks in 100 mL of the appropriate media (listed in Table 8) for 3-7 days at 30° C. at a light intensity of approximately 3,500 lux. Cells were extracted for alkane detection as follows: cells from 1 mL culture volume were centrifuged for 1 min at 13,000 rpm, the cell pellets were resuspended in methanol, vortexed for 1 min and then sonicated for 30 min. After centrifugation for 3 min at 13,000 rpm, the supernatants were transferred to fresh vials and analyzed by GC-MS. The samples were analyzed on either 30 m DP-5 capillary column (0.25 mm internal diameter) or a 30 m high temperature DP-5 capillary column (0.25 mm internal diameter) using the following method.
After a 1 μL splitless injection (inlet temperature held at 300° C.) onto the GC/MS column, the oven was held at 100° C. for 3 mins. The temperature was ramped up to 320° C. at a rate of 20° C./min. The oven was held at 320° C. for an additional 5 min. The flow rate of the carrier gas helium was 1.3 mL/min. The MS quadrapole scanned from 50 to 550 m/z. Retention times and fragmentation patterns of product peaks were compared with authentic references to confirm peak identity.
The genomic DNA encoding Synechococcus elongatus PCC7942 orf1594 (YP_400611; putative aldehyde-generating enzyme) (SEQ ID NO:65) was amplified and cloned into the NcoI and EcoRI sites of vector OP-80 (pCL1920 derivative) under the control of the Ptrc promoter. The resulting construct (“OP80-PCC7942_1594”) was transformed into E. coli MG1655 and the cells were grown at 37° C. in M9 minimal media with 1% (w/v) glucose as carbon source and supplemented with 100 μg/mL spectinomycin. When the culture reached OD600 of 0.8-1.0, it was induced with 1 mM IPTG and cells were grown for an additional 18-20 h at 37° C. Cells from 0.5 mL of culture were extracted with 0.5 mL of ethyl acetate. After sonication for 60 min, the sample was centrifuged at 15,000 rpm for 5 min. The solvent layer was analyzed by GC-MS as described in Example 1.
The genomic DNA encoding Synechococcus elongatus PCC7942 orf1593 (YP_400610; putative decarbonylase) (SEQ ID NO:1) was amplified and cloned into the NdeI and XhoI sites of vector OP-183 (pACYC derivative) under the control of the Ptrc promoter. The resulting construct was cotransformed with OP80-PCC7942_1594 into E. coli MG1655 and the cells were grown at 37° C. in M9 minimal media supplemented with 100 μg/mL spectinomycin and 100 μg/mL carbenicillin. The cells were cultured and extracted as in Example 3 and analyzed by GC-MS as described in Example 1. […]

The test system of data set [1] is E. coli MG1655 ΔfadD lacZ::Ptrc-′tesA. Briefly: Decarbonylase expression in fatty aldehyde-producing E. coli strain expressing MSMEG_5739. The note with it: coexpressed with M. smegmatis carboxylic acid reductase MSMEG_5739. In kind it is cell-based.
Where [2] appears, read: in the presence of 2 mM NADPH, read-out: Km for the reduction.

Where two headings read alike, the source gives them in different places.

As for `NC(=O)C1=CN([C@@H]2O[C@H](COP(=O)(O)OP(=O)(O)OC[C@H]3O[C@@H](n4cnc5c(N)ncnc54)[C@H](O)[C@@H]3O)[C@@H](O)[C@H]2O)C=CC1` [NADH], on PCC7942_orf1594 protein (octadecanoyl-CoA, Mg2+), the “support of reductase activity as electron donor” value was “did not support reductase activity”.
Consider `[2H]C1C=CN(C2OC(COP(=O)(O)OP(=O)(O)OCC3OC(n4cnc5c(N)ncnc54)C(OP(=O)(O)O)C3O)C(O)C2O)C=C1C(N)=O` (stereo not drawn) [S-(4-^2H)NADPH], for which, at PCC7942_orf1594 protein (1 mM octadecanoyl-CoA, deutero-NADPH, 1 h), the “stereospecific hydride transfer to fatty aldehyde” value is “Octadecanal with a plus one unit mass was observed”.
Regarding `CCCCCCCCCCCCCCCCCC(=O)SCCNC(=O)CCNC(=O)[C@H](O)C(C)(C)COP(=O)(O)OP(=O)(O)OC[C@H]1O[C@@H](n2cnc3c(N)ncnc32)[C@H](O)[C@@H]1OP(=O)(O)O` [octadecanoyl-CoA], the “reduction to fatty aldehyde” value on PCC7942_orf1594 protein was “able to reduce”.
By Km is commonly meant the substrate concentration at which the rate is half of its maximum. On to NADPH, for which the Km on PCC7942_orf1594 protein (in the presence of 0.5 mM octadecanoyl-CoA, read-out: Km value for NADPH) came out at 400 ± 80 µM.
With octadecenoyl-ACP, the “reduction to fatty aldehyde” value at PCC7942_orf1594 protein is reported as “able to reduce”. Further, the Km in the data set with PCC7942_orf1594 protein (setting [2]) was 7.8 ± 2 µM.
For octadecenoyl-CoA, in that order: “able to reduce” and 82 ± 22 µM.

B1: SEQ ID NO: 15: Gloeobacter violaceus PCC7421 gll3146, putative decarbonylase (protein, listed as Gloeobacter violaceus)
chain: VNRTAPSSAALDYRSDTYRDAYSRINAIVLEGEREAHANYLTLAEMLPDHAEALKKLAAMENRHFKGFQSCARNLEVTPDDPFARAYFEQLDGNFQQAAAEGDLTTCMVIQALIIECFAIAAYNVYIPVADAFARKVTEGVVKDEYTHLNFGQQWLKERFVTVREGIERANAQNLPIVWRMLNAVEADTEVLQMDKEAIVEDFMIAYGEALGDIGFSMRDVMKMSARGLASAPRQ
For B1, in the data set with E. coli MG1655, the “Production of Alkanes and Alkenes” value is given as “yes”; the “fatty aldehyde decarbonylase activity in E. coli” value was “active fatty aldehyde decarbonylase”. For the same molecule, in data set [1], the “conversion of fatty aldehydes provided by MSMEG_5739 to alkanes” value (shortened to “conversion of fatty aldehydes provided”) is on record as “converted fatty aldehydes provided by MSMEG_5739 to the corresponding alkanes”.

B2: SEQ ID NO: 9: Acaryochloris marina MBIC11017 AM1_4041, putative decarbonylase (protein, listed as Acaryochloris marina)
chain: MPQTQAISEIDFYSDTYKDAYSRIDGIVIEGEQEAHENYIRLGEMLPEHQDDFIRLSKMEARHKKGFEACGRNLKVTCDLDFARRFFSDLHKNFQDAAAEDKVPTCLVIQSLIIECFAIAAYNIYIPVADDFARKITESVVKDEYQHLNYGEEWLKAHFDDVKAEIQEANRKNLPIVWRMLNEVDKDAAVLGMEKEALVEDFMIQYGEALSNIGFSTGEIMRMSAYGLVAA
As to B2, in the data set with E. coli MG1655, the “Production of Alkanes and Alkenes” value is on record as “yes”; the “fatty aldehyde decarbonylase activity in E. coli” value is on record as “active fatty aldehyde decarbonylase”. The “conversion of fatty aldehydes provided” value in data set [1] is listed as “converted fatty aldehydes provided by MSMEG_5739 to the corresponding alkanes”.

B3: SEQ ID NO: 5: Nostoc punctiforme PCC73102 Npun02004178, putative decarbonylase (protein)
chain: MQQLTDQSKELDFKSETYKDAYSRINAIVIEGEQEAHENYITLAQLLPESHDELIRLSKMESRHKKGFEACGRNLAVTPDLQFAKEFFSGLHQNFQTAAAEGKVVTCLLIQSLIIECFAIAAYNIYIPVADDFARKITEGVVKEEYSHLNFGEVWLKEHFAESKAELELANRQNLPIVWKMLNQVEGDAHTMAMEKDALVEDFMIQYGEALSNIGFSTRDIMRLSAYGLIGA
modifications: Nostoc punctiforme
notes: Nostoc punctiforme PCC73102 Npun02004178, putative decarbonylase
Take B3: in the data set with E. coli MG1655, the “Production of Alkanes and Alkenes” value is “yes”; the “fatty aldehyde decarbonylase activity in E. coli” value was “active fatty aldehyde decarbonylase”. Further, the “conversion of fatty aldehydes provided” value in data set [1] was “converts tetradecanal, hexadecenal and hexadecanal provided by the carboxylic acid reductase MSMEG_5739 to tridecane, pentadecene and pentadecane”.

B4: SEQ ID NO: 7: Nostoc sp. PCC7210 alr5283, putative decarbonylase (protein, listed as Nostoc sp.)
chain: MQQVAADLEIDFKSEKYKDAYSRINAIVIEGEQEAYENYIQLSQLLPDDKEDLIRLSKMESRHKKGFEACGRNLQVSPDMEFAKEFFAGLHGNFQKAAAEGKIVTCLLIQSLIIECFAIAAYNIYIPVADDFARKITEGVVKDEYSHLNFGEVWLQKNFAQSKAELEEANRHNLPIVWKMLNQVADDAAVLAMEKEALVEDFMIQYGEALSNIGFTTRDIMRMSAYGLTAA
Turning to B4, in the data set on E. coli MG1655, the “Production of Alkanes and Alkenes” value is reported as “yes”; the “fatty aldehyde decarbonylase activity in E. coli” value is “active fatty aldehyde decarbonylase”. For the same molecule, the “conversion of fatty aldehydes provided” value in data set [1] is given as “converted fatty aldehydes provided by MSMEG_5739 to the corresponding alkanes”.
